Measurements as given in US20260327578A1, “TRANSGLUTAMINASES AND USES THEREOF” (CURIE CO. INC., priority 2023, published 2026).

Legend:
N,N-dimethylcasein = assay: Rate of product formation over 60 minutes (protein functionalization assay); assay type: biochemical; parameters: key: −: a reduction in activity; +: an improvement between 1.2 and 2-fold; ++: an improvement between 2 and 5-fold; +++: an improvement greater than 5-fold; details: improvement relative to wild-type Tgase (SEQ ID NO: 2); initial rate over 60 min
Method: Enzymatic “productivity” is a measure of product formation or substrate disappearance over time, at a prescribed temperature under specified reaction conditions. It is the measure both the durability and reaction yield of the enzyme variant. In this instance, productivity is defined as total product formed over 24-hours at a constant substrate concentration when the enzyme is the rate limiting factor. The time is defined as 24 hours, which represents approaching or surpassing burnout, denaturation, or self-reaction of the enzyme variant. In other words, variants with higher productivity deliver a higher product yield in 24-hours than variants with lower productivity produce in the same period of time. “Rate” refers to the initial rate for an enzymatic reaction, at a prescribed temperature under specified reaction conditions. The enzyme produces product at an initial rate that is approximately linear for a short period after the start of the reaction. When concentrations of enzyme and substrate are the same across the sample set, initial rates between enzyme variants can be compared. In this instance, the linear range for production of product occurs in one hour. Enzyme variants with faster initial rates deliver a higher product yield in one hour than variants with slower initial rates produce at the same time-period. In some cases, improvements to initial rates also deliver a more productive variant. In some cases, improvements to initial rates result in faster decay of the enzyme variant reducing overall enzymatic productivity. Productivity and rate may be assessed as described in Example 2.
Table 6 depicts variants of Streptomyces mobaraensis Tgase and improvement to productivity and/or rate relative to wild-type Tgase (SEQ ID NO. 2) as determined in Example 3. Numbering of amino acid positions is in reference to the mature S. mobaraensis Tgase sequence depicted in SEQ ID NO. 2. A “−” indicates a reduction in activity. A “+” indicates an improvement between 1.2 and 2-fold. A “++” indicates an improvement between 2 and 5-fold. A “+++” indicates an improvement greater than 5-fold.
Rate was assessed by measuring the rate of product formation over 60 minutes of incubation using a kinetic method to take scans every 60 seconds to determine product formation, using reaction conditions as described in Example 4B. The enzyme produces product at an initial rate that is approximately linear for the first one hour of the reaction. The concentrations of enzyme and substrate are the same across the sample set for each enzyme variant. Enzyme variants with faster initial rates deliver a higher product yield in one hour than variants with slower initial rates produce at the same time-period.
Protein functionalization by Tgase variants was determined by the fluorogenic labeling of casein using monodansylcadaverine (e.g., a commercially available kit such as the Transglutaminase Fluorogenic Activity Assay Kit, T036, Zedira, Germany). Tgase activity was monitored by measuring fluorescence (excitation wavelength 332 nm; emission wavelength 500 nm) using a BioTek Synergy H1 microplate reader. Transglutaminase-catalyzed covalent coupling (crosslinking) of monodansylcadaverine with N,N-dimethylcasein produces a product that causes a shift in intensity and wavelength of fluorescence of the dansyl group now linked to the casein. The relative transglutaminase activity is shown by increase of fluorescence intensity over time. Enzyme variant loading was optimized based on expression levels, ensuring enzyme was the rate limiting factor. Briefly, cell-free reactions (set up as described in Example 2A) were first diluted 10-fold using phosphate buffer, pH 7.4, and a 5 microliter aliquot was analyzed.

E. coli = assay: Preservative efficacy in body lotion against E. coli; assay type: cell-based; details: 0.005% in combinations, phenoxyethanol 0.7% alone, 0.3% combined, caprylyl glycol 0.7% alone, 0.35% combined, sodium benzoate 0.5% + EDTA 0.5%, 2% 2:1 propanediol:hexanediol, 0.5% CHA solution
Method: (§1) A vessel was filled with deionized water, placed under an overhead stirrer set to moderate mixing, and heated to 75-80° C. Glycerin was added to 2% and mixed until dissolved, followed by xanthan gum to 0.2%. At 75-80° C., cetearyl glucoside and cetearyl alcohol were added to 4% and 3%. Once both had melted fully, milk thistle seed oil was added and the batch was homogenized with a Silverson homogenizer with the standard emulsion screen until the batch had turned milky white. The batch was removed from heat and returned to propellor mixing with decreased speed to allow the emulsion to set up. At 40° C., pH was adjusted to pH 5.5-6.0 using citric acid or sodium hydroxide and split into several portions and allowed to finish cooling. Once cooled to room temperature, one portion of the body lotion was left unpreserved and the remaining portions were preserved with one or more substances selected from aseptilase, phenoxyethanol, caprylyl glycol, sodium benzoate, and EDTA. All samples were inoculated with E. coli (10^6 CFU/mL) and C. albicans (10^5 CFU/mL) and plated after 2 and 7 days.

C. albicans = assay: Preservative efficacy in body lotion against C. albicans; assay type: cell-based; details: 0.005% in combinations, phenoxyethanol 0.7% alone, 0.3% combined, caprylyl glycol 0.7% alone, 0.35% combined, sodium benzoate 0.5% + EDTA 0.5%, 2% 2:1 propanediol:hexanediol, 0.5% CHA solution
Method: as §1

B1: A3: Tgase variant S2P Q50S Q74A K91H Q124L K151R K152R N282M G283A relative to SEQ ID NO: 2 (protein, UniProt P81453 77-407, looked up, variant S2P Q50S Q74A K91H Q124L K151R K152R N282M G283A)
Protein-glutamine …: DPDDRVTPPAEPLDRMPDPYRPSYGRAETVVNNYIRKWQQVYSHRDGRKSQMTEEQREWLSYGCVGVTWVNSGAYPTNRLAFASFDEDRFHNELKNGRPRSGETRAEFEGRVAKESFDEEKGFLRAREVASVMNRALENAHDESAYLDNLRRELANGNDALRNEDARSPFYSALRNTPSFKERNGGNHDPSRMKAVIYSKHFWSGQDRSSSADKRKYGDPDAFRPAPGTGLVDMSRDRNIPRSPTSPGEGFVNFDYGWFGAQTEADADKTVWTHGNHYHAPMASLGAMHVYESKFRNWSEGYSDFDRGAYVITFIPKSWNTAPDKVKQGWP
Rate (N,N-dimethylcasein): −
Preservative efficacy against E. coli, log reduction (E. coli; day 2, aseptilase 0.01% alone): 1.71 log reduction in CFU/mL
Preservative efficacy against E. coli, log reduction (E. coli; day 7, aseptilase 0.01% alone): 3.45 log reduction in CFU/mL
Preservative efficacy against C. albicans, log reduction (C. albicans; day 2, aseptilase 0.01% alone): −1.08 log reduction in CFU/mL
Preservative efficacy against C. albicans, log reduction (C. albicans; day 7, aseptilase 0.01% alone): −1.19 log reduction in CFU/mL
